Measurements: patent US10947289B2, “Glyco-modified atrial natriuretic peptide” (priority 2013, dated 2021)

Test: Detection of test substance in rat plasma by LC-MS/MS (Test Example 3)
Assay type: in vivo
Details: rat plasma, 100 nmol/kg i.v., LC-MS/MS; time at which the test substance was finally detected
Description: Before the administration and 15, 30, 60, 90, 120, 180, and 240 minutes after the administration, blood was sampled (200 μL/sampling) over time from the jugular vein. The blood samples were immediately left on ice.
The collected blood samples were centrifuged at 5000 rpm at 4° C. for 5 minutes by use of a centrifuge (Sigma 4K15, rotor: Nr12130-H). The separated plasma samples were divided into two types (samples for PK measurement and for cGMP measurement) and stored at −80° C. until measurement.
An internal standard (20 μL (500 nM) of a stable isotope of hANP) and an acetic acid mixed solvent (AcOH/distilled water/DMSO=5/3/2, v/v/v) were added to 50 μL of each rat plasma sample prepared in (1) and then mixed therewith. The mixture was transferred to Amicon Ultra-0.5 50K (Millipore Corp., MA) and centrifuged at 14000 rpm at 15° C. for 30 minutes. The obtained filtrate was transferred to Amicon Ultra-0.5 3K (Millipore Corp., MA) and centrifuged again under the aforementioned conditions. The solution remaining on the filter was recovered and transferred to a 96-well deep well plate. The content of the test substance was measured by LC-MS/MS (LC: Shimadzu LC-10ADVP (Shimadzu Corp.), MS/MS: API 4000 QTrap (AB SCIEX)) to calculate the concentration in plasma. The time at which the test substance was finally detected is shown in the rightmost column of Table 2.

| SMILES | Maximum time of detection after administration |
| --- | --- |
| CC[C@H](C)[C@@H]1NC(=O)[C@H](CCCNC(=N)N)NC(=O)[C@H](CC(=O)O)NC(=O)[C@H](CCSC)NC(=O)[C@H](CCCNC(=N)N)NC(=O)CNC(=O)CNC(=O)[C@H](Cc2ccccc2)NC(=O)[C@@H](NC(=O)[C@H](CO)NC(=O)[C@H](CO)NC(=O)[C@H](CCCNC(=N)N)NC(=O)[C@H](CCCNC(=N)N)NC(=O)[C@H](CC(C)C)NC(=O)[C@H](CO)NC(=O)CCc2cn(CCO[C@@H]3O[C@H](CO)[C@@H](O[C@@H]4O[C@H](CO)[C@@H](O[C@@H]5O[C@H](CO[C@H]6O[C@H](CO)[C@@H](O)[C@H](O)[C@@H]6O[C@@H]6O[C@H](CO)[C@@H](O[C@@H]7O[C@H](CO[C@]8(C(=O)O)C[C@H](O)[C@@H](NC(C)=O)[C@H]([C@H](O)[C@H](O)CO)O8)[C@H](O)[C@H](O)[C@H]7O)[C@H](O)[C@H]6NC(C)=O)[C@@H](O)[C@H](O[C@H]6O[C@H](CO)[C@@H](O)[C@H](O)[C@@H]6O[C@@H]6O[C@H](CO)[C@@H](O[C@@H]7O[C@H](CO[C@]8(C(=O)O)C[C@H](O)[C@@H](NC(C)=O)[C@H]([C@H](O)[C@H](O)CO)O8)[C@H](O)[C@H](O)[C@H]7O)[C@H](O)[C@H]6NC(C)=O)[C@@H]5O)[C@H](O)[C@H]4NC(C)=O)[C@H](O)[C@H]3NC(C)=O)nn2)CSSC[C@@H](C(=O)N[C@@H](CC(N)=O)C(=O)N[C@@H](CO)C(=O)N[C@@H](Cc2ccccc2)C(=O)N[C@@H](CCCNC(=N)N)C(=O)N[C@@H](Cc2ccc(O)cc2)C(=O)O)NC(=O)CNC(=O)[C@H](CC(C)C)NC(=O)CNC(=O)[C@H](CO)NC(=O)[C@H](CCC(N)=O)NC(=O)[C@H](C)NC(=O)CNC1=O [Compound 2-12, SG-triazole-hANP(1-28)] | 1.5 h |
| CC[C@H](C)[C@@H]1NC(=O)[C@H](CCCNC(=N)N)NC(=O)[C@H](CC(=O)O)NC(=O)[C@H](CCSC)NC(=O)[C@H](CCCNC(=N)N)NC(=O)CNC(=O)CNC(=O)[C@H](Cc2ccccc2)NC(=O)[C@@H](NC(=O)[C@H](CO)NC(=O)[C@H](CO)NC(=O)[C@H](CCCNC(=N)N)NC(=O)[C@H](CCCNC(=N)N)NC(=O)[C@H](CC(C)C)NC(=O)[C@H](CO)NC(=O)CO[C@@H]2O[C@H](CO)[C@@H](O[C@@H]3O[C@H](CO)[C@@H](O[C@@H]4O[C@H](CO[C@H]5O[C@H](CO)[C@@H](O)[C@H](O)[C@@H]5O)[C@@H](O)[C@H](O[C@H]5O[C@H](CO)[C@@H](O)[C@H](O)[C@@H]5O)[C@@H]4O)[C@H](O)[C@H]3NC(C)=O)[C@H](O)[C@H]2NC(C)=O)CSSC[C@@H](C(=O)N[C@@H](CC(N)=O)C(=O)N[C@@H](CO)C(=O)N[C@@H](Cc2ccccc2)C(=O)N[C@@H](CCCNC(=N)N)C(=O)N[C@@H](Cc2ccc(O)cc2)C(=O)O)NC(=O)CNC(=O)[C@H](CC(C)C)NC(=O)CNC(=O)[C@H](CO)NC(=O)[C@H](CCC(N)=O)NC(=O)[C@H](C)NC(=O)CNC1=O [Compound 2-26, AG(5)-hANP(1-28)] | 2 h |
| CC[C@H](C)[C@@H]1NC(=O)[C@H](CCCNC(=N)N)NC(=O)[C@H](CC(=O)O)NC(=O)[C@H](CCSC)NC(=O)[C@H](CCCNC(=N)N)NC(=O)CNC(=O)CNC(=O)[C@H](Cc2ccccc2)NC(=O)[C@@H](NC(=O)[C@H](CO)NC(=O)[C@H](CO)NC(=O)[C@H](CCCNC(=N)N)NC(=O)[C@H](CCCNC(=N)N)NC(=O)[C@H](CC(C)C)NC(=O)[C@H](CO)NC(=O)CCOCCOCCOCCOCCOCCOCCOCCOCCOCCOCCOCCOCCNC(=O)CO[C@@H]2O[C@H](CO)[C@@H](O[C@@H]3O[C@H](CO)[C@@H](O[C@@H]4O[C@H](CO[C@H]5O[C@H](CO)[C@@H](O)[C@H](O)[C@@H]5O[C@@H]5O[C@H](CO)[C@@H](O[C@@H]6O[C@H](CO[C@]7(C(=O)O)C[C@H](O)[C@@H](NC(C)=O)[C@H]([C@H](O)[C@H](O)CO)O7)[C@H](O)[C@H](O)[C@H]6O)[C@H](O)[C@H]5NC(C)=O)[C@@H](O)[C@H](O[C@H]5O[C@H](CO)[C@@H](O)[C@H](O)[C@@H]5O[C@@H]5O[C@H](CO)[C@@H](O[C@@H]6O[C@H](CO[C@]7(C(=O)O)C[C@H](O)[C@@H](NC(C)=O)[C@H]([C@H](O)[C@H](O)CO)O7)[C@H](O)[C@H](O)[C@H]6O)[C@H](O)[C@H]5NC(C)=O)[C@@H]4O)[C@H](O)[C@H]3NC(C)=O)[C@H](O)[C@H]2NC(C)=O)CSSC[C@@H](C(=O)N[C@@H](CC(N)=O)C(=O)N[C@@H](CO)C(=O)N[C@@H](Cc2ccccc2)C(=O)N[C@@H](CCCNC(=N)N)C(=O)N[C@@H](Cc2ccc(O)cc2)C(=O)O)NC(=O)CNC(=O)[C@H](CC(C)C)NC(=O)CNC(=O)[C@H](CO)NC(=O)[C@H](CCC(N)=O)NC(=O)[C@H](C)NC(=O)CNC1=O [Compound 2-30, SG-PEG(11)-hANP(1-28)] | 4 h |
| CC[C@H](C)[C@@H]1NC(=O)[C@H](CCCNC(=N)N)NC(=O)[C@H](CC(=O)O)NC(=O)[C@H](CCSC)NC(=O)[C@H](CCCNC(=N)N)NC(=O)CNC(=O)CNC(=O)[C@H](Cc2ccccc2)NC(=O)[C@@H](NC(=O)[C@H](CO)NC(=O)[C@H](CO)NC(=O)[C@H](CCCNC(=N)N)NC(=O)[C@H](CCCNC(=N)N)NC(=O)[C@H](CC(C)C)NC(=O)[C@H](CO)NC(=O)CO[C@@H]2O[C@H](CO)[C@@H](O[C@@H]3O[C@H](CO)[C@@H](O[C@@H]4O[C@H](CO[C@H]5O[C@H](CO)[C@@H](O)[C@H](O)[C@@H]5O[C@@H]5O[C@H](CO)[C@@H](O[C@@H]6O[C@H](CO)[C@H](O)[C@H](O)[C@H]6O)[C@H](O)[C@H]5NC(C)=O)[C@@H](O)[C@H](O[C@H]5O[C@H](CO)[C@@H](O)[C@H](O)[C@@H]5O[C@@H]5O[C@H](CO)[C@@H](O[C@@H]6O[C@H](CO)[C@H](O)[C@H](O)[C@H]6O)[C@H](O)[C@H]5NC(C)=O)[C@@H]4O)[C@H](O)[C@H]3NC(C)=O)[C@H](O)[C@H]2NC(C)=O)CSSC[C@@H](C(=O)N[C@@H](CC(N)=O)C(=O)N[C@@H](CO)C(=O)N[C@@H](Cc2ccccc2)C(=O)N[C@@H](CCCNC(=N)N)C(=O)N[C@@H](Cc2ccc(O)cc2)C(=O)O)NC(=O)CNC(=O)[C@H](CC(C)C)NC(=O)CNC(=O)[C@H](CO)NC(=O)[C@H](CCC(N)=O)NC(=O)[C@H](C)NC(=O)CNC1=O [Compound 2-10, AG(9)-hANP(1-28)] | 1.5 h |
| CC[C@H](C)[C@@H]1NC(=O)[C@H](CCCNC(=N)N)NC(=O)[C@H](CC(=O)O)NC(=O)[C@H](CCSC)NC(=O)[C@H](CCCNC(=N)N)NC(=O)CNC(=O)CNC(=O)[C@H](Cc2ccccc2)NC(=O)[C@@H](NC(=O)[C@H](CO)NC(=O)[C@H](CO)NC(=O)[C@H](CCCNC(=N)N)NC(=O)[C@H](CCCNC(=N)N)NC(=O)[C@H](CC(C)C)NC(=O)[C@H](CO)NC(=O)CO[C@@H]2O[C@H](CO)[C@@H](O[C@@H]3O[C@H](CO)[C@@H](O[C@@H]4O[C@H](CO[C@H]5O[C@H](CO)[C@@H](O)[C@H](O)[C@@H]5O[C@@H]5O[C@H](CO)[C@@H](O)[C@H](O)[C@H]5NC(C)=O)[C@@H](O)[C@H](O[C@H]5O[C@H](CO)[C@@H](O)[C@H](O)[C@@H]5O[C@@H]5O[C@H](CO)[C@@H](O)[C@H](O)[C@H]5NC(C)=O)[C@@H]4O)[C@H](O)[C@H]3NC(C)=O)[C@H](O)[C@H]2NC(C)=O)CSSC[C@@H](C(=O)N[C@@H](CC(N)=O)C(=O)N[C@@H](CO)C(=O)N[C@@H](Cc2ccccc2)C(=O)N[C@@H](CCCNC(=N)N)C(=O)N[C@@H](Cc2ccc(O)cc2)C(=O)O)NC(=O)CNC(=O)[C@H](CC(C)C)NC(=O)CNC(=O)[C@H](CO)NC(=O)[C@H](CCC(N)=O)NC(=O)[C@H](C)NC(=O)CNC1=O [Compound 2-11, AG(7)-hANP(1-28)] | 2 h |
| CC[C@H](C)[C@@H]1NC(=O)[C@H](CCCNC(=N)N)NC(=O)[C@H](CC(=O)O)NC(=O)[C@H](CCSC)NC(=O)[C@H](CCCNC(=N)N)NC(=O)CNC(=O)CNC(=O)[C@H](Cc2ccccc2)NC(=O)[C@@H](NC(=O)[C@H](CO)NC(=O)[C@H](CO)NC(=O)[C@H](CCCNC(=N)N)NC(=O)[C@H](CCCNC(=N)N)NC(=O)[C@H](CC(C)C)NC(=O)[C@H](CO)NC(=O)CCOCCOCCOCCOCCNC(=O)CO[C@@H]2O[C@H](CO)[C@@H](O[C@@H]3O[C@H](CO)[C@@H](O[C@@H]4O[C@H](CO[C@H]5O[C@H](CO)[C@@H](O)[C@H](O)[C@@H]5O[C@@H]5O[C@H](CO)[C@@H](O[C@@H]6O[C@H](CO[C@]7(C(=O)O)C[C@H](O)[C@@H](NC(C)=O)[C@H]([C@H](O)[C@H](O)CO)O7)[C@H](O)[C@H](O)[C@H]6O)[C@H](O)[C@H]5NC(C)=O)[C@@H](O)[C@H](O[C@H]5O[C@H](CO)[C@@H](O)[C@H](O)[C@@H]5O[C@@H]5O[C@H](CO)[C@@H](O[C@@H]6O[C@H](CO[C@]7(C(=O)O)C[C@H](O)[C@@H](NC(C)=O)[C@H]([C@H](O)[C@H](O)CO)O7)[C@H](O)[C@H](O)[C@H]6O)[C@H](O)[C@H]5NC(C)=O)[C@@H]4O)[C@H](O)[C@H]3NC(C)=O)[C@H](O)[C@H]2NC(C)=O)CSSC[C@@H](C(=O)N[C@@H](CC(N)=O)C(=O)N[C@@H](CO)C(=O)N[C@@H](Cc2ccccc2)C(=O)N[C@@H](CCCNC(=N)N)C(=O)N[C@@H](Cc2ccc(O)cc2)C(=O)O)NC(=O)CNC(=O)[C@H](CC(C)C)NC(=O)CNC(=O)[C@H](CO)NC(=O)[C@H](CCC(N)=O)NC(=O)[C@H](C)NC(=O)CNC1=O [Compound 2-29, SG-PEG(3)-hANP(1-28)] | 2 h |
